According to the supplement of paper PMC7877785:
± gives the uncertainty stated by the source.

Experiment: self-splicing fitness, log relative to wild type (ln ratio); higher = more splicing; Tetrahymena group I intron in knt gene, E. coli kanamycin selection, DiMSum; sequences stand for … in CUCUCU…GGAGGGAAAAGUUAUCAGGCAUGCACCUGGUAGCUAGUCUUUAAACCAAUAGAUUGCAUCGGUUUAAAAGGCAAGACCGUCAAAUUGCGGGAAAGGGGUCAACAGCCGUUCAGUACCAAGUCUCAGGGGAAACUUUGAGAUGGCCUUGCAAAGGGUAUGGUAAUAAGCUGACGGACAUGGUCCUAACCACGCAGCCAAGUCCUAAGUCAACAGAUCUUCUGUUGAUAUGGAUGCAGUUCACAGACUAAAUGUCGGUCGGGGAAGAUGUAUUCUUCUCAUAAGAUAUAGUCGGACCUCUCCUUAAUGGGAGCUAGCGGAUGAAGUGAUGCAACACUGGAGCCGCUGGGAACUAAUUUGUAUGCGAAAGUAUAUUGAUUAGUUUUGGAGUACUCGUGGUCG
In short: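 Six replicate transformations of E. coli BL21(DE3) with a pET-22b(+) library were grown overnight at 37°C or 30°C. The library randomised all eight P1ex-region intron nucleotides, the intron lying in the knt kanamycin-resistance gene, and plates were LB agar with or without 25 μg/mL kanamycin plus 100 μg/mL carbenicillin, 50 μM IPTG and 0.2% rhamnose. Pooled colonies were amplicon-sequenced on an Illumina HiSeq 2500, and fitness is the DiMSum error-weighted combination of wild-type-normalised replicate fold changes, kanamycin versus none.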

Sequence	self-splicing fitness (ln) (30 °C)	self-splicing fitness (ln) (37 °C)
GUGCAGCAAUAUUACGUGCG	-2.56 ± 0.1	-2.06 ± 0.14
GUGCAGCAAUAUUACGUUGA	-1.49 ± 0.13	-0.806 ± 0.14
GUGGAGCAAUAUUACGAAUA	-4.24 ± 0.47	-2.33 ± 0.38
GUGGAGCAAUAUUACGACCA		-1.24 ± 0.35
GUGGAGCAAUAUUACGAUAC	-1.47 ± 0.26	-0.631 ± 0.42
GUGGAGCAAUAUUACGAUUC	-0.681 ± 0.31	0.0106 ± 0.22
GUGGAGCAAUAUUACGCAAA	-2.28 ± 0.43	-1.83 ± 0.25
GUGGAGCAAUAUUACGCCUA	-3 ± 0.29	-1.96 ± 0.2
GUGGAGCAAUAUUACGCGGA		-1.85 ± 0.24
GUGGAGCAAUAUUACGCGGU	-1.16 ± 0.3	-0.344 ± 0.29
GUGGAGCAAUAUUACGCGUU	-2.56 ± 0.16	-1.94 ± 0.23
GUGGAGCAAUAUUACGCUGG	-3.52 ± 0.37	-2.41 ± 0.33
GUGGAGCAAUAUUACGCUUU	-3.84 ± 0.32	-2.41 ± 0.27
GUGGAGCAAUAUUACGGCCU	-1.74 ± 0.19	-0.55 ± 0.3
GUGGAGCAAUAUUACGGGAU	-4.12 ± 0.23	-1.99 ± 0.24
GUGGAGCAAUAUUACGGUUG	-3.04 ± 0.15	
GUGGAGCAAUAUUACGUAAU	-2.23 ± 0.13	-0.812 ± 0.13
GUGGAGCAAUAUUACGUACA	-2.11 ± 0.33	
GUGGAGCAAUAUUACGUACU	-2.19 ± 0.37	-2.2 ± 0.32
GUGGAGCAAUAUUACGUAUC	-2.13 ± 0.2	-0.331 ± 0.17
GUGGAGCAAUAUUACGUAUG	-3.15 ± 0.24	-2.3 ± 0.24

Sequence	self-splicing fitness (ln) (30 °C)	self-splicing fitness (ln) (37 °C)
GUGGAGCAAUAUUACGUGAG	-2.1 ± 0.19	-2.39 ± 0.21
GUGGAGCAAUAUUACGUGUC	-3.84 ± 0.22	-2.64 ± 0.24
GUGGAGCAAUAUUACGUUAA	-2.17 ± 0.19	-2.41 ± 0.26
GUGUAGCAAUAUUACGAGCG		-0.927 ± 0.34
GUGUAGCAAUAUUACGAUAA	-2.6 ± 0.19	-0.508 ± 0.12
GUGUAGCAAUAUUACGAUGA	-1.16 ± 0.087	-0.756 ± 0.094
GUGUAGCAAUAUUACGAUUC	0.325 ± 0.094	-0.738 ± 0.088
GUGUAGCAAUAUUACGCAUU	-2.29 ± 0.3	-1.97 ± 0.28
GUGUAGCAAUAUUACGCGUG	-3.82 ± 0.26	-1.49 ± 0.15
GUGUAGCAAUAUUACGCUAG	-3.53 ± 0.31	-1.88 ± 0.36
GUGUAGCAAUAUUACGCUUC	-2.71 ± 0.28	-3.09 ± 0.47
GUGUAGCAAUAUUACGGAAA	-3 ± 0.28	-1.42 ± 0.27
GUGUAGCAAUAUUACGGAAU	-1.42 ± 0.13	-1.64 ± 0.25
GUGUAGCAAUAUUACGGCAG		-0.824 ± 0.23
GUGUAGCAAUAUUACGGGAC	-3.44 ± 0.32	-2.03 ± 0.28
GUGUAGCAAUAUUACGUCCG	-3.16 ± 0.33	-0.647 ± 0.22
GUGUAGCAAUAUUACGUCCU	-0.899 ± 0.15	-0.148 ± 0.19
GUGUAGCAAUAUUACGUGGG	-4.25 ± 0.21	-4.08 ± 0.26
GUGUAGCAAUAUUACGUGUA	-2.62 ± 0.14	-1.22 ± 0.11
GUGUAGCAAUAUUACGUUGC	-1.92 ± 0.22	-2.28 ± 0.46
GUUAAGCAAUAUUACGACAA	-0.704 ± 0.29	-1.12 ± 0.26

Sequence	self-splicing fitness (ln) (30 °C)	self-splicing fitness (ln) (37 °C)
GUUAAGCAAUAUUACGACAG	-2.85 ± 0.28	-1.82 ± 0.33
GUUAAGCAAUAUUACGACCA	-0.467 ± 0.21	-1.67 ± 0.17
GUUAAGCAAUAUUACGACUG	-2.57 ± 0.2	-2.53 ± 0.4
GUUAAGCAAUAUUACGAUAU	-1.02 ± 0.067	-0.0864 ± 0.074
GUUAAGCAAUAUUACGCAAC		-0.0162 ± 0.34
GUUAAGCAAUAUUACGCCGA	-1.83 ± 0.19	-0.947 ± 0.18
GUUAAGCAAUAUUACGCCGG		-0.148 ± 0.27
GUUAAGCAAUAUUACGCCGU	-1.42 ± 0.19	-1.39 ± 0.23
GUUAAGCAAUAUUACGCCUC	-1.41 ± 0.25	0.196 ± 0.31
GUUAAGCAAUAUUACGCGAG	-0.369 ± 0.1	-0.341 ± 0.14
GUUAAGCAAUAUUACGCGCA	-0.293 ± 0.12	0.115 ± 0.15
GUUAAGCAAUAUUACGCUCA	-0.759 ± 0.1	0.0333 ± 0.13
GUUAAGCAAUAUUACGCUGG	-0.613 ± 0.17	-0.0646 ± 0.2
GUUAAGCAAUAUUACGCUUA	-3.09 ± 0.26	-2.71 ± 0.25
GUUAAGCAAUAUUACGGAGG	-4 ± 0.23	-1.56 ± 0.19
GUUAAGCAAUAUUACGGAGU	-3.71 ± 0.23	-0.486 ± 0.13
GUUAAGCAAUAUUACGGCAC	-0.637 ± 0.12	0.0416 ± 0.15
GUUAAGCAAUAUUACGGUAG	-2.87 ± 0.17	-1.69 ± 0.17
GUUAAGCAAUAUUACGGUCA	-0.91 ± 0.098	-0.943 ± 0.092
GUUAAGCAAUAUUACGUAAA	-1.45 ± 0.12	-1.43 ± 0.12
